What was measured:
[1] = molecular target: T1, human OX40 extracellular domain (ECD) protein (human, UniProt P43489 29-214); experiment: competition ELISA: human OX40 ECD coated, antibody titrated in a mix with a constant concentration of OX40L, bound OX40L detected at OD450
T1 construct: extracellular domain; also called human OX40 ECD; human OX40 protein; not shown: human Fc or His tag
T1 sequence (looked up): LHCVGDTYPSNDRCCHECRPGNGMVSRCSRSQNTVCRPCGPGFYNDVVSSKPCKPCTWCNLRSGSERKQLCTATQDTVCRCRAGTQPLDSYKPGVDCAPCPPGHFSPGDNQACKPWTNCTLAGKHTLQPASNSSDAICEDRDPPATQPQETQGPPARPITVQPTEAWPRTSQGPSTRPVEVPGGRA

[2] = molecular target: T2, human OX40, full-length, on cells (human, UniProt P43489 29-277); experiment: flow cytometry on human OX40 transfected CHO-K1 cells
T2 construct: whole, on cells; also called hPro1; cell surface human OX40
T2 sequence (looked up): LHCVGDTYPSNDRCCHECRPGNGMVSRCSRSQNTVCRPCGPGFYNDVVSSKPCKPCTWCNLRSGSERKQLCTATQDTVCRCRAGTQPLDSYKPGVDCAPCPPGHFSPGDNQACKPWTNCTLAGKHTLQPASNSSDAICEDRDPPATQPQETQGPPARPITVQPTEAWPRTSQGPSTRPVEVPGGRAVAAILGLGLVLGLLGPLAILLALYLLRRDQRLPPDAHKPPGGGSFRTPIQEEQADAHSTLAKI
Description: (§1) CHO-K 1 cells expressing human OX40 were transferred in to 96-well U-bottom plates (Corning) at a density of 5×10⁴ cells/mL. Testing antibodies were 1:2 serially diluted in wash buffer (1×PBS/1% BSA) and incubated with cells at 4° C. for 1 h. The secondary antibody goat anti-human IgG Fc FITC (3.2 moles FITC per mole IgG, Jackson Immunoresearch Lab) was added and incubated with cells at 4° C. in the dark for half an hour. The cells were then washed once, resuspended in 1×PBS/1% BSA and analyzed by flow cytometry (BD). Fluorescence intensity was converted to bound molecules/cell based on the quantitative beads Quantum™ MESF Kits (Bangs Laboratories, Inc.). The KD value of each antibody was calculated using Graphpad Prism5.

[3] = molecular target: T3, human 4-1BB (CD137) ECD (human, UniProt Q07011 24-186); experiment: ELISA on coated ECD, one antibody concentration (not given)
T3 construct: extracellular domain
T3 sequence (Q07011 24-186): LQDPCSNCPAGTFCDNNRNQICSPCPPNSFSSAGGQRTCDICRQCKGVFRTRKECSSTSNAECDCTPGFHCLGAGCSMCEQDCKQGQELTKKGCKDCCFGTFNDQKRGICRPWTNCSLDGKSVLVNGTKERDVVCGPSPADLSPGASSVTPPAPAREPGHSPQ

[4] = molecular target: T4, human CD40 ECD (human, UniProt P25942 21-193); experiment: as above
T4 construct: extracellular domain
T4 sequence (P25942 21-193): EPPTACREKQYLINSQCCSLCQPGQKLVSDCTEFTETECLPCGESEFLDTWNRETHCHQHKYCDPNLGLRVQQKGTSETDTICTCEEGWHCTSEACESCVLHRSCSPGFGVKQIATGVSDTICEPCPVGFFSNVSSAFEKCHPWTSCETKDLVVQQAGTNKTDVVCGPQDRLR
Description: (§2) Human OX40, CD40, 4-1BB (CD137) and CD271 ECD were coated on plates (Nunc) overnight at 4° C. After blocking and washing, testing antibodies were diluted in blocking buffer and added to the plates and incubated at room temperature for 1 h. The plates were then washed and subsequently incubated with secondary antibody goat anti-human IgG Fc-HRP (Bethyl) for 1 h. After washing, TMB substrate was added and the interaction was stopped by 2M HCl.

[5] = molecular target: T5, human CD271 ECD (human, UniProt P08138 29-250); experiment: as above
T5 construct: extracellular domain
T5 sequence (looked up): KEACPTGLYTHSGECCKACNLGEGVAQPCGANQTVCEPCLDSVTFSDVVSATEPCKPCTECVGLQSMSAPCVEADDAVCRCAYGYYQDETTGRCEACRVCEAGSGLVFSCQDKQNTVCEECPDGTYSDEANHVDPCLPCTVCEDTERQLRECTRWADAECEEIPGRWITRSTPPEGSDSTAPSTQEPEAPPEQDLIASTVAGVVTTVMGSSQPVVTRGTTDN
Description: as §2

[6] = molecular target: T1, human OX40 extracellular domain (ECD) …; experiment: SPR, Biacore T200, antibody captured, OX40 as analyte
Description: Antibodies were characterized for affinity and binding kinetics to OX40 by SPR assay using Biacore T200 (GE). […] Then various concentrations of human or monkey OX40 and running buffer were flowed through the sensor chip at a flow rate of 30 μL/min for an association phase of 180 s, followed by dissociation. The association and dissociation curve was fit by 1:1 Langmuir binding model using the BIAevaluation T200 software.

[7] = molecular target: T2, human OX40, full-length, on cells; experiment: FACS, transfected 293F cells, antibody 1 ug/mL
Description: (§3) Binding of antibodies to chimeric OX40 variants was analyzed by flow cytometry. […] Cells were analyzed using flow cytometer.

[8] = molecular target: T6, mouse OX40 (mPro1) on transfected 293F cells (mouse, UniProt P47741 20-272); experiment: FACS, transfected 293F cells, antibody 1 ug/mL
T6 construct: whole, on cells
T6 sequence (looked up): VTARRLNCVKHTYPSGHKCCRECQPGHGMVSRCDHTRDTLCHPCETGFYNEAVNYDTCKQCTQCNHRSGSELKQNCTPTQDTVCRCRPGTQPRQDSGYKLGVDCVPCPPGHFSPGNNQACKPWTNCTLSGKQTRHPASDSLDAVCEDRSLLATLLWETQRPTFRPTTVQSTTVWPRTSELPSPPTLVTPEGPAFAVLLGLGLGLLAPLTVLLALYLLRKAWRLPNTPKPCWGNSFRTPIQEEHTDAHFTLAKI
Description: as §3

[9] = molecular target: T2, human OX40, full-length, on cells; experiment: flow cytometry, CHO-K1 cells expressing human OX40, MESF beads
Description: as §1

IC50 (read off the curve) [1]: ~1 nM
EC50 (read off the curve) [2]: ~1 nM
binding result [3]: no binding
binding result [4]: no binding
binding result [5]: no binding
Kd [6]: 0.179 nM
koff [6]: 3.7e-05 s⁻¹
kon [6]: 207000 M⁻¹ s⁻¹
MFI [7]: 9160
PE + % [7]: 85.2%
MFI [8]: 44.4
PE + % [8]: 0.937%
Kd [9]: 0.53 nM
B1: 1.134.9-u1-IgG1L (antibody, V domains shown)
VH: QVQLQESGPGLVKPSGTLSLTCAVSGGSISSYNWWSWVRQPPGKGLEWIGEIYHGGNTNYNPSLKSRVTMSVDNSKNQFSLKLSSVTAADTAVYYCARAPGDWGGSPYFDFWGQGTLVTVSS
VL: SSELTQDPAVSVALGQTVRITCQGDNLRTYYASWYQQKPGQAPILLIYGRNKRPSGIPDRFSGSSSGNTASLTITGAQAEDEAAYYCNSRDSSGNPVVFGGGTKLTVL
notes: fully human IgG1, lambda
